According to PMC6980832, “Crystal structures of Triosephosphate Isomerases from Taenia solium and Schistosoma mansoni provide insights for vaccine rationale and drug design against helminth parasites” (PLoS Neglected Tropical Diseases, 2020):

Tests used:
[1] = biological target: the molecule itself; experiment: SEC; gel filtration elution profile of wild-type and point mutants of SmTPI; conditions not shown
[2] = biological target: the molecule itself; experiment: crystal structure; sitting drop; protein 20 mg/ml incubated with 10 mM 2-phosphoglyceric acid in storage buffer; homodimer seen in the crystal

Protein	stoichiometry N [1]	binding result [2]
Triosephosphate isomerase from Schistosoma mansoni (enzyme, three additional amino acids (Gly, Pro, His) before the initial methionine, left from the modified pET19 vector; triosephosphate isomerase, Schistosoma mansoni, XP_018647623; all 253 amino acids visible in the crystal structure; also called SmTPI; wild-type SmTPI; source: E. coli strain devoid of its endogenous triosephosphate isomerase gene, purified (two purification steps)) GPHMSGSRKFFVGGNWKMNGSRDDNDKLLKLLSEAHFDDNTEVLIAPPSVFLHEIRKSLKKEIHVAAQNCYKVSKGAFTGEISPAMIRDIGCDWVILGHSERRNIFGESDELIAEKVQHALAEGLSVIACIGETLSERESNKTEEVCVRQLKAIANKIKSADEWKRVVVAYEPVWAIGTGKVATPQQAQEVHNFLRKWFKTNAPNGVDEKIRIIYGGSVTAANCKELAQQHDVDGFLVGGASLKPEFTEICKARQR	2	–
Triosephosphate isomerase from Taenia solium (enzyme, three additional amino acids (Gly, Pro, His) before the initial methionine, left from the modified pET19 vector; triosephosphate isomerase, Taenia solium, GenBank AAG21132.1; all 250 amino acids visible in the crystal structure; also called TsTPI; source: E. coli strain devoid of its endogenous triosephosphate isomerase gene, purified (two purification steps)) GPHMTRKLFVGGNWKMNGSYSHINTFFDTLQKADTDPNADIVIGVPACYLKYAQDKAPKGIKIAAENCYKVGSGAFTGEISTEMIKDCGCEWVILGHSERRHIFGESNELIGEKVKHALDSGLNVIPCIGELLSEREAGKTNDVCFAQMDAIAKNVPSKEAWDKVVIAYEPVWAIGTGKTATPAQAQEVHKVVRDWIRKHVDAGIADKVRILYGGSVTASNAKDLGTQPDVDGFLVGGASLKPDFITIINARR	–	binds
